Measurements as given in FireProtDB (doi:10.1093/protein/gzw068).

B1: T27V, Q93D82 (parent)
chain: MSTAIVTNVKHFGGMGSALRLSEAGHTVACHDESFKQKDELEAFAETYPQLKPMSEQEPAELIEAVTSAYGQVDVLVSNDIFAPEFQPIDKYAVEDYRGAVEALQIRPFALVNAVASQMKKRKSGHIIFITSATPFGPWKELSTYTSARAGACTLANALSKELGEYNIPVFAIGPNYLHSEDSPYFYPTEPWKTNPEHVAHVKKVTALQRLGTQKELGELVAFLASGSCDYLTGQVFWLAGGFPMIERWPGMPE

Variants of: B1
Conditions: Rhizobium radiobacter; pH 7.7; Thermal; CD; Phosphate 5mM; structure 1PWX; whole UniProt chain shown

MSTAIVTNVKHFGGMGSALRLSEAGHVVACHDESFKQKDELEAFAETYPQLKPMSEQEPAELIEAVTSAYGQVDVLVSNDIFAPEFQPIDKYAVEDYRGAVEALQIRPFALVNAVASQMKKRKSGHIIFITSATPFGPWKELSTYTSARAGACTLANALSKELGEYNIPVFAIGPNYLHSEDSPYFYPTEPWKTNPEHVAHVKKVTALQRLGTQKELGELVAFLASGSCDYLTGQVFWLAGGFPMIERWPGMPE [T27V]
Tm: 64.5 °C | change of melting temperature, mutant - wild type (higher = more stable): -0.5 °C

MSTAIVTNVKHFGGMGSALRLSEAGHMVACHDESFKQKDELEAFAETYPQLKPMSEQEPAELIEAVTSAYGQVDVLVSNDIFAPEFQPIDKYAVEDYRGAVEALQIRPFALVNAVASQMKKRKSGHIIFITSATPFGPWKELSTYTSARAGACTLANALSKELGEYNIPVFAIGPNYLHSEDSPYFYPTEPWKTNPEHVAHVKKVTALQRLGTQKELGELVAFLASGSCDYLTGQVFWLAGGFPMIERWPGMPE [T27M]
Tm: 65 °C | change of melting temperature, mutant - wild type (higher = more stable): 0 °C

MSTAIVTNVKHFGGMGSALRLSEAGHLVACHDESFKQKDELEAFAETYPQLKPMSEQEPAELIEAVTSAYGQVDVLVSNDIFAPEFQPIDKYAVEDYRGAVEALQIRPFALVNAVASQMKKRKSGHIIFITSATPFGPWKELSTYTSARAGACTLANALSKELGEYNIPVFAIGPNYLHSEDSPYFYPTEPWKTNPEHVAHVKKVTALQRLGTQKELGELVAFLASGSCDYLTGQVFWLAGGFPMIERWPGMPE [T27L]
Tm: 65 °C | change of melting temperature, mutant - wild type (higher = more stable): 0 °C

MSTAIVTNVKHFGGMGSALRLSEAGHTVACHDESFKQKDELQAFAETYPQLKPMSEQEPAELIEAVTSAYGQVDVLVSNDIFAPEFQPIDKYAVEDYRGAVEALQIRPFALVNAVASQMKKRKSGHIIFITSATPFGPWKELSTYTSARAGACTLANALSKELGEYNIPVFAIGPNYLHSEDSPYFYPTEPWKTNPEHVAHVKKVTALQRLGTQKELGELVAFLASGSCDYLTGQVFWLAGGFPMIERWPGMPE [E42Q]
Tm: 64 °C | change of melting temperature, mutant - wild type (higher = more stable): -1 °C

MSTAIVTNVKHFGGMGSALRLSEAGHTVACHDESFKQKDELMAFAETYPQLKPMSEQEPAELIEAVTSAYGQVDVLVSNDIFAPEFQPIDKYAVEDYRGAVEALQIRPFALVNAVASQMKKRKSGHIIFITSATPFGPWKELSTYTSARAGACTLANALSKELGEYNIPVFAIGPNYLHSEDSPYFYPTEPWKTNPEHVAHVKKVTALQRLGTQKELGELVAFLASGSCDYLTGQVFWLAGGFPMIERWPGMPE [E42M]
Tm: 66.5 °C | change of melting temperature, mutant - wild type (higher = more stable): 1.5 °C

MSTAIVTNVKHFGGMGSALRLAEAGHTVACHDESFKQKDELEAFAETYPQLKPMSEQEPAELIEAVTSAYGQVDVLVSNDIFAPEFQPIDKYAVEDYRGAVEALQIRPFALVNAVASQMKKRKSGHIIFITSATPFGPWKELSTYTSARAGACTLANALSKELGEYNIPVFAIGPNYLHSEDSPYFYPTEPWKTNPEHVAHVKKVTALQRLGTQKELGELVAFLASGSCDYLTGQVFWLAGGFPMIERWPGMPE [S22A]
Tm: 64.5 °C | change of melting temperature, mutant - wild type (higher = more stable): -0.5 °C

MSTAIVFNVKHFGGMGSALRLSEAGHTVACHDESFKQKDELEAFAETYPQLKPMSEQEPAELIEAVTSAYGQVDVLVSNDIFAPEFQPIDKYAVEDYRGAVEALQIRPFALVNAVASQMKKRKSGHIIFITSATPFGPWKELSTYTSARAGACTLANALSKELGEYNIPVFAIGPNYLHSEDSPYFYPTEPWKTNPEHVAHVKKVTALQRLGTQKELGELVAFLASGSCDYLTGQVFWLAGGFPMIERWPGMPE [T7F]
Tm: 65 °C | change of melting temperature, mutant - wild type (higher = more stable): 0 °C

MSTAIVMNVKHFGGMGSALRLSEAGHTVACHDESFKQKDELEAFAETYPQLKPMSEQEPAELIEAVTSAYGQVDVLVSNDIFAPEFQPIDKYAVEDYRGAVEALQIRPFALVNAVASQMKKRKSGHIIFITSATPFGPWKELSTYTSARAGACTLANALSKELGEYNIPVFAIGPNYLHSEDSPYFYPTEPWKTNPEHVAHVKKVTALQRLGTQKELGELVAFLASGSCDYLTGQVFWLAGGFPMIERWPGMPE [T7M]
Tm: 65 °C | change of melting temperature, mutant - wild type (higher = more stable): 0 °C

MSTAIVTNVKHFGGMGAALRLSEAGHTVACHDESFKQKDELEAFAETYPQLKPMSEQEPAELIEAVTSAYGQVDVLVSNDIFAPEFQPIDKYAVEDYRGAVEALQIRPFALVNAVASQMKKRKSGHIIFITSATPFGPWKELSTYTSARAGACTLANALSKELGEYNIPVFAIGPNYLHSEDSPYFYPTEPWKTNPEHVAHVKKVTALQRLGTQKELGELVAFLASGSCDYLTGQVFWLAGGFPMIERWPGMPE [S17A]
Tm: 65 °C | change of melting temperature, mutant - wild type (higher = more stable): 0 °C

MSTAIVTNVKHFGGMGSALRLSEAGHTVACHDESFKQKDELEAFAEAYPQLKPMSEQEPAELIEAVTSAYGQVDVLVSNDIFAPEFQPIDKYAVEDYRGAVEALQIRPFALVNAVASQMKKRKSGHIIFITSATPFGPWKELSTYTSARAGACTLANALSKELGEYNIPVFAIGPNYLHSEDSPYFYPTEPWKTNPEHVAHVKKVTALQRLGTQKELGELVAFLASGSCDYLTGQVFWLAGGFPMIERWPGMPE [T47A]
Tm: 63 °C | change of melting temperature, mutant - wild type (higher = more stable): -2 °C

MSTAIVTNVKHFGGMGSALRLSEAGHTVACHDESFKQKDELEAFAEHYPQLKPMSEQEPAELIEAVTSAYGQVDVLVSNDIFAPEFQPIDKYAVEDYRGAVEALQIRPFALVNAVASQMKKRKSGHIIFITSATPFGPWKELSTYTSARAGACTLANALSKELGEYNIPVFAIGPNYLHSEDSPYFYPTEPWKTNPEHVAHVKKVTALQRLGTQKELGELVAFLASGSCDYLTGQVFWLAGGFPMIERWPGMPE [T47H]
Tm: 63.5 °C | change of melting temperature, mutant - wild type (higher = more stable): -1.5 °C

MSTAIVTNVKHFGGMGSALRLSEAGHTVACHDESFKQKDELEAFAEKYPQLKPMSEQEPAELIEAVTSAYGQVDVLVSNDIFAPEFQPIDKYAVEDYRGAVEALQIRPFALVNAVASQMKKRKSGHIIFITSATPFGPWKELSTYTSARAGACTLANALSKELGEYNIPVFAIGPNYLHSEDSPYFYPTEPWKTNPEHVAHVKKVTALQRLGTQKELGELVAFLASGSCDYLTGQVFWLAGGFPMIERWPGMPE [T47K]
Tm: 66 °C | change of melting temperature, mutant - wild type (higher = more stable): 1 °C

MSTAIVTNVKHFGGMGSALRLSEAGHTVACHDESFKQKEELEAFAETYPQLKPMSEQEPAELIEAVTSAYGQVDVLVSNDIFAPEFQPIDKYAVEDYRGAVEALQIRPFALVNAVASQMKKRKSGHIIFITSATPFGPWKELSTYTSARAGACTLANALSKELGEYNIPVFAIGPNYLHSEDSPYFYPTEPWKTNPEHVAHVKKVTALQRLGTQKELGELVAFLASGSCDYLTGQVFWLAGGFPMIERWPGMPE [D39E]
Tm: 65 °C | change of melting temperature, mutant - wild type (higher = more stable): 0 °C

MSTAIVTNVKHFGGMGSALRLSEAGHTVACHDESFKQKKELEAFAETYPQLKPMSEQEPAELIEAVTSAYGQVDVLVSNDIFAPEFQPIDKYAVEDYRGAVEALQIRPFALVNAVASQMKKRKSGHIIFITSATPFGPWKELSTYTSARAGACTLANALSKELGEYNIPVFAIGPNYLHSEDSPYFYPTEPWKTNPEHVAHVKKVTALQRLGTQKELGELVAFLASGSCDYLTGQVFWLAGGFPMIERWPGMPE [D39K]
Tm: 66.5 °C | change of melting temperature, mutant - wild type (higher = more stable): 1.5 °C

MKTAIVTNVKHFGGMGSALRLSEAGHTVACHDESFKQKDELEAFAETYPQLKPMSEQEPAELIEAVTSAYGQVDVLVSNDIFAPEFQPIDKYAVEDYRGAVEALQIRPFALVNAVASQMKKRKSGHIIFITSATPFGPWKELSTYTSARAGACTLANALSKELGEYNIPVFAIGPNYLHSEDSPYFYPTEPWKTNPEHVAHVKKVTALQRLGTQKELGELVAFLASGSCDYLTGQVFWLAGGFPMIERWPGMPE [S2K]
Tm: 66 °C | change of melting temperature, mutant - wild type (higher = more stable): 1 °C

MSTAIVTNVKHFGGMGSALRLSEAGHTVLCHDESFKQKDELEAFAETYPQLKPMSEQEPAELIEAVTSAYGQVDVLVSNDIFAPEFQPIDKYAVEDYRGAVEALQIRPFALVNAVASQMKKRKSGHIIFITSATPFGPWKELSTYTSARAGACTLANALSKELGEYNIPVFAIGPNYLHSEDSPYFYPTEPWKTNPEHVAHVKKVTALQRLGTQKELGELVAFLASGSCDYLTGQVFWLAGGFPMIERWPGMPE [A29L]
Tm: 68 °C | change of melting temperature, mutant - wild type (higher = more stable): 3 °C

MSTAIVTNVKHFGGMGSALRLSEAGHTVAVHDESFKQKDELEAFAETYPQLKPMSEQEPAELIEAVTSAYGQVDVLVSNDIFAPEFQPIDKYAVEDYRGAVEALQIRPFALVNAVASQMKKRKSGHIIFITSATPFGPWKELSTYTSARAGACTLANALSKELGEYNIPVFAIGPNYLHSEDSPYFYPTEPWKTNPEHVAHVKKVTALQRLGTQKELGELVAFLASGSCDYLTGQVFWLAGGFPMIERWPGMPE [C30V]
Tm: 64 °C | change of melting temperature, mutant - wild type (higher = more stable): -1 °C

MSTAIVTNVKHFGGMGSALRLSEAGMTVACHDESFKQKDELEAFAETYPQLKPMSEQEPAELIEAVTSAYGQVDVLVSNDIFAPEFQPIDKYAVEDYRGAVEALQIRPFALVNAVASQMKKRKSGHIIFITSATPFGPWKELSTYTSARAGACTLANALSKELGEYNIPVFAIGPNYLHSEDSPYFYPTEPWKTNPEHVAHVKKVTALQRLGTQKELGELVAFLASGSCDYLTGQVFWLAGGFPMIERWPGMPE [H26M]
Tm: 64.5 °C | change of melting temperature, mutant - wild type (higher = more stable): -0.5 °C

MSTAIVTNVKHFGGMGSALRLSEAGHTVACHDESFKEKDELEAFAETYPQLKPMSEQEPAELIEAVTSAYGQVDVLVSNDIFAPEFQPIDKYAVEDYRGAVEALQIRPFALVNAVASQMKKRKSGHIIFITSATPFGPWKELSTYTSARAGACTLANALSKELGEYNIPVFAIGPNYLHSEDSPYFYPTEPWKTNPEHVAHVKKVTALQRLGTQKELGELVAFLASGSCDYLTGQVFWLAGGFPMIERWPGMPE [Q37E]
Tm: 65 °C | change of melting temperature, mutant - wild type (higher = more stable): 0 °C

MSTAIVTNVKHFGGMGSALRLSEAGHTVACHDESFKDKDELEAFAETYPQLKPMSEQEPAELIEAVTSAYGQVDVLVSNDIFAPEFQPIDKYAVEDYRGAVEALQIRPFALVNAVASQMKKRKSGHIIFITSATPFGPWKELSTYTSARAGACTLANALSKELGEYNIPVFAIGPNYLHSEDSPYFYPTEPWKTNPEHVAHVKKVTALQRLGTQKELGELVAFLASGSCDYLTGQVFWLAGGFPMIERWPGMPE [Q37D]
Tm: 65 °C | change of melting temperature, mutant - wild type (higher = more stable): 0 °C

MSTAIVTNVKHFGGMGSALRLSEAGHTVACHDPSFKQKDELEAFAETYPQLKPMSEQEPAELIEAVTSAYGQVDVLVSNDIFAPEFQPIDKYAVEDYRGAVEALQIRPFALVNAVASQMKKRKSGHIIFITSATPFGPWKELSTYTSARAGACTLANALSKELGEYNIPVFAIGPNYLHSEDSPYFYPTEPWKTNPEHVAHVKKVTALQRLGTQKELGELVAFLASGSCDYLTGQVFWLAGGFPMIERWPGMPE [E33P]
Tm: 64.5 °C | change of melting temperature, mutant - wild type (higher = more stable): -0.5 °C

MSTAIVTNVKHFGGMGSALRLSEAGHTVACHDESFKQKDELEAFKETYPQLKPMSEQEPAELIEAVTSAYGQVDVLVSNDIFAPEFQPIDKYAVEDYRGAVEALQIRPFALVNAVASQMKKRKSGHIIFITSATPFGPWKELSTYTSARAGACTLANALSKELGEYNIPVFAIGPNYLHSEDSPYFYPTEPWKTNPEHVAHVKKVTALQRLGTQKELGELVAFLASGSCDYLTGQVFWLAGGFPMIERWPGMPE [A45K]
Tm: 65.5 °C | change of melting temperature, mutant - wild type (higher = more stable): 0.5 °C

MSTAIVTNVKHFGGMGSALRLSEAGHTVACHDESFKQKDELEAFLETYPQLKPMSEQEPAELIEAVTSAYGQVDVLVSNDIFAPEFQPIDKYAVEDYRGAVEALQIRPFALVNAVASQMKKRKSGHIIFITSATPFGPWKELSTYTSARAGACTLANALSKELGEYNIPVFAIGPNYLHSEDSPYFYPTEPWKTNPEHVAHVKKVTALQRLGTQKELGELVAFLASGSCDYLTGQVFWLAGGFPMIERWPGMPE [A45L]
Tm: 64 °C | change of melting temperature, mutant - wild type (higher = more stable): -1 °C
